B1: Q71NL88AL92AY93L: mutated TriA variant of SEQ ID NO: 2 (protein)
chain: MQTLSIQHGTLVTMDQYRRVLGDSWVHVQDGRIVALGVHAESVPPPADRVIDARGKVVLPGFINAHTHVNNILLRGGPSHGRQLYDWAFNVALPGQKAMRPEDVAVAVRLYCAEAVRSGITTINDNADSAIYPGNIEAAMAVYGEVGVRVVYARMFFDRMDGRIQGYVDALKARSPQVELCSIMEETAVAKDRITALSDQYHGTAGGRISVWPAPAITPAVTVEGMRWAQAFARDRAVMWTLHMAESDHDERLHWMSPAEYMECYGLLDERLQVAHCVYFDRKDVRLLHRHNVKVASQVVSNAYLGSGVAPVPEMVERGMAVGIGTDDGNCNDSVNMIGDMKFMAHIHRAVHRDADVLTPEKILEMATIDGARSLGMDHEIGSIETGKRADLILLDLRHPQTTPHHHLAATIVFQAYGNEVDTVLIDGNVVMENRRLSFLPPERELAFLEEAQSRATAILQRANMVANPAWRSL
modifications: Pseudomonas
B2: Q71NL88AL92AD128A: mutated TriA variant of SEQ ID NO: 2 (protein)
chain: MQTLSIQHGTLVTMDQYRRVLGDSWVHVQDGRIVALGVHAESVPPPADRVIDARGKVVLPGFINAHTHVNNILLRGGPSHGRQLYDWAFNVAYPGQKAMRPEDVAVAVRLYCAEAVRSGITTINDNAASAIYPGNIEAAMAVYGEVGVRVVYARMFFDRMDGRIQGYVDALKARSPQVELCSIMEETAVAKDRITALSDQYHGTAGGRISVWPAPAITPAVTVEGMRWAQAFARDRAVMWTLHMAESDHDERLHWMSPAEYMECYGLLDERLQVAHCVYFDRKDVRLLHRHNVKVASQVVSNAYLGSGVAPVPEMVERGMAVGIGTDDGNCNDSVNMIGDMKFMAHIHRAVHRDADVLTPEKILEMATIDGARSLGMDHEIGSIETGKRADLILLDLRHPQTTPHHHLAATIVFQAYGNEVDTVLIDGNVVMENRRLSFLPPERELAFLEEAQSRATAILQRANMVANPAWRSL
modifications: Pseudomonas
B3: Q71NL88AL92AY93FF157L: mutated TriA variant of SEQ ID NO: 2 (protein)
chain: MQTLSIQHGTLVTMDQYRRVLGDSWVHVQDGRIVALGVHAESVPPPADRVIDARGKVVLPGFINAHTHVNNILLRGGPSHGRQLYDWAFNVAFPGQKAMRPEDVAVAVRLYCAEAVRSGITTINDNADSAIYPGNIEAAMAVYGEVGVRVVYARMFLDRMDGRIQGYVDALKARSPQVELCSIMEETAVAKDRITALSDQYHGTAGGRISVWPAPAITPAVTVEGMRWAQAFARDRAVMWTLHMAESDHDERLHWMSPAEYMECYGLLDERLQVAHCVYFDRKDVRLLHRHNVKVASQVVSNAYLGSGVAPVPEMVERGMAVGIGTDDGNCNDSVNMIGDMKFMAHIHRAVHRDADVLTPEKILEMATIDGARSLGMDHEIGSIETGKRADLILLDLRHPQTTPHHHLAATIVFQAYGNEVDTVLIDGNVVMENRRLSFLPPERELAFLEEAQSRATAILQRANMVANPAWRSL
modifications: Pseudomonas
B4: Q71NL88AL92AY93LI217A: mutated TriA variant of SEQ ID NO: 2 (protein)
chain: MQTLSIQHGTLVTMDQYRRVLGDSWVHVQDGRIVALGVHAESVPPPADRVIDARGKVVLPGFINAHTHVNNILLRGGPSHGRQLYDWAFNVALPGQKAMRPEDVAVAVRLYCAEAVRSGITTINDNADSAIYPGNIEAAMAVYGEVGVRVVYARMFFDRMDGRIQGYVDALKARSPQVELCSIMEETAVAKDRITALSDQYHGTAGGRISVWPAPAATPAVTVEGMRWAQAFARDRAVMWTLHMAESDHDERLHWMSPAEYMECYGLLDERLQVAHCVYFDRKDVRLLHRHNVKVASQVVSNAYLGSGVAPVPEMVERGMAVGIGTDDGNCNDSVNMIGDMKFMAHIHRAVHRDADVLTPEKILEMATIDGARSLGMDHEIGSIETGKRADLILLDLRHPQTTPHHHLAATIVFQAYGNEVDTVLIDGNVVMENRRLSFLPPERELAFLEEAQSRATAILQRANMVANPAWRSL
modifications: Pseudomonas
B5: Q71NL88AL92AY93F: mutated TriA variant of SEQ ID NO: 2 (protein)
chain: MQTLSIQHGTLVTMDQYRRVLGDSWVHVQDGRIVALGVHAESVPPPADRVIDARGKVVLPGFINAHTHVNNILLRGGPSHGRQLYDWAFNVAFPGQKAMRPEDVAVAVRLYCAEAVRSGITTINDNADSAIYPGNIEAAMAVYGEVGVRVVYARMFFDRMDGRIQGYVDALKARSPQVELCSIMEETAVAKDRITALSDQYHGTAGGRISVWPAPAITPAVTVEGMRWAQAFARDRAVMWTLHMAESDHDERLHWMSPAEYMECYGLLDERLQVAHCVYFDRKDVRLLHRHNVKVASQVVSNAYLGSGVAPVPEMVERGMAVGIGTDDGNCNDSVNMIGDMKFMAHIHRAVHRDADVLTPEKILEMATIDGARSLGMDHEIGSIETGKRADLILLDLRHPQTTPHHHLAATIVFQAYGNEVDTVLIDGNVVMENRRLSFLPPERELAFLEEAQSRATAILQRANMVANPAWRSL
modifications: Pseudomonas
B6: Q71NL88AL92AD128G: mutated TriA variant of SEQ ID NO: 2 (protein)
chain: MQTLSIQHGTLVTMDQYRRVLGDSWVHVQDGRIVALGVHAESVPPPADRVIDARGKVVLPGFINAHTHVNNILLRGGPSHGRQLYDWAFNVAYPGQKAMRPEDVAVAVRLYCAEAVRSGITTINDNAGSAIYPGNIEAAMAVYGEVGVRVVYARMFFDRMDGRIQGYVDALKARSPQVELCSIMEETAVAKDRITALSDQYHGTAGGRISVWPAPAITPAVTVEGMRWAQAFARDRAVMWTLHMAESDHDERLHWMSPAEYMECYGLLDERLQVAHCVYFDRKDVRLLHRHNVKVASQVVSNAYLGSGVAPVPEMVERGMAVGIGTDDGNCNDSVNMIGDMKFMAHIHRAVHRDADVLTPEKILEMATIDGARSLGMDHEIGSIETGKRADLILLDLRHPQTTPHHHLAATIVFQAYGNEVDTVLIDGNVVMENRRLSFLPPERELAFLEEAQSRATAILQRANMVANPAWRSL
modifications: Pseudomonas
B7: Q71G: mutated TriA variant of SEQ ID NO: 2 (protein)
chain: MQTLSIQHGTLVTMDQYRRVLGDSWVHVQDGRIVALGVHAESVPPPADRVIDARGKVVLPGFINAHTHVNGILLRGGPSHGRQLYDWLFNVLYPGQKAMRPEDVAVAVRLYCAEAVRSGITTINDNADSAIYPGNIEAAMAVYGEVGVRVVYARMFFDRMDGRIQGYVDALKARSPQVELCSIMEETAVAKDRITALSDQYHGTAGGRISVWPAPAITPAVTVEGMRWAQAFARDRAVMWTLHMAESDHDERLHWMSPAEYMECYGLLDERLQVAHCVYFDRKDVRLLHRHNVKVASQVVSNAYLGSGVAPVPEMVERGMAVGIGTDDGNCNDSVNMIGDMKFMAHIHRAVHRDADVLTPEKILEMATIDGARSLGMDHEIGSIETGKRADLILLDLRHPQTTPHHHLAATIVFQAYGNEVDTVLIDGNVVMENRRLSFLPPERELAFLEEAQSRATAILQRANMVANPAWRSL
modifications: Pseudomonas

Assay type: biochemical
Details: pH 7.2
Description: EXAMPLE 3: Protein Purification. TriA and variants thereof were produced in E. coli BL21(DE3) Gold (Agilent Technologies, Germany). Therefore E. coli was transformed with appropriate pET24d N-HIS tag expression vector and chaperone plasmid pGro7 (chaperones groEL and groES). Bacterial strains were grown at 30° C. in 100 mL LB for 20 h and protein expression induced with 0.1 mM IPTG at 25° C. for 20 hs. Cells were harvested by centrifugation at 3000 rpm at 4° C. for 20 min, resuspended in Bug Buster protein extraction reagent (Novagen, Germany) according to manufactures instructions. Lysates were clarified by centrifugation. Samples of bovine serum albumin ([…]) were loaded onto each gel analyzed by densitometry to provide an internal standard. Protein determinations were verified using Coomassie protein assay dye, according to manufactures instruction (Thermo Scientific; USA). The HIS-tagged enzymes were purified by metal ion affinity chromatography using Ni-IDA 1000 kit (Macherey-Nagel, Germany) following manufactures instructions. Protein purity was accessed by SDS-PAGE using NuPAGE Novex 4-12% Bis-Tris pre-cast gels (Life Technologies; USA) stained with Coomassie Brilliant Blue (Serva, Germany). Protein concentrations were estimated by measuring absorbance at 280 nm using Lambda Bio+(Perkin Elmer, USA). EXAMPLE 4: Enzyme kinetics. Resting cell suspension containing triA gene were incubated with various azines, melamine and atrazine and the culture filtrate was analyzed by UPLC-HR-MS. Substrates were obtained either from Sigma-Aldrich or synthesized internally. Synthetic standards and enzyme reaction products were analysed by UPLC-HR-MS (Thermo/Dionex UPLC UltiMate3000 coupled to a QExactive high resolution mass spectrometer). A Waters Acquity HSS T3 column (2.1 mm; 100 mm; […]) was used with a mobile phase water/acetonitrile (0.1% formic acid) with a flow rate of […]. Enzymes were used solved 25 mM sodium phosphate buffer (pH 7.2) with substrate concentration in the range of 1 nM to 10 nM at 30° C. Over time, the original azine peak disappeared whereas the formed OH-Metabolite (reaction product) increased. The product was identified by determination of the exact formula and by analysis of the accurate MS-MS fragments. Moreover for some of the formed products authentic standards were co-eluted. Degradation in % was calculated against the cells harboring the empty vector as control.

Point of comparison: B5, “Degradation in % of 6-cyclopentyl-N4-(2,3,4,5,6-pentafluorophenyl)-1,3,5-triazine-2,4-diamine” value 92%. Against it:
- B1 — higher, 99%
- B2 — lower, 4%
- B3 — lower, 91%
- B4 — higher, 99%
- B6 — lower, 31%
- B7 — lower, 0%

Point of comparison: B3, “Degradation in % of Melamine” value 1%. Against it:
- B1 — higher, 4%
- B2 — lower, 0%
- B4 — higher, 12%
- B5 — higher, 5%
- B6 — lower, 0%
- B7 — higher, 19%

Source: patent publication US11499162B2, “Plants having increased tolerance to herbicides” (BASF SE, priority 2016, dated 2022)
